Earlier results on six substances are cited in patent US5474978A, “Insulin analog formulations” (Eli Lilly and Company, priority 1994, dated 1995).

For the data set the following is noted: compared with Zn-insulin.
As to Ala^B28 insulin, the Zn-induced association entry is reported as “demonstrate Zn-induced association, but less than Zn-insulin”.

Regarding Asp^B28 Pro^B29 -hI, the Zn-induced association entry was “little or no Zn-induced association”.

For Pro^B29 insulin, the Zn-induced association entry is “demonstrate Zn-induced association, but less than Zn-insulin”.

Take Asp^B28 insulin: the Zn-induced association result is “demonstrate Zn-induced association, but less than Zn-insulin”.

On to Ala^B28 Pro^B29 -hI, for which the Zn-induced association result is recorded as “little or no Zn-induced association”.

On to Lys^B28 insulin, for which the Zn-induced association result is “demonstrate Zn-induced association, but less than Zn-insulin”.
